Source: article PMC8908268 (The Journal of Biological Chemistry, 2022)
Values joined by “and” are separate entries in the source; they are usually repeats but may differ in a detail not shown here. Equal entries are not always repeated.

How the values were obtained:
[1] = target: His-tagged, doubly phosphorylated LAT (48–233aa; pY132 and pY171) (UniProt O43561); assay: co-sedimentation
[2] = target: T1, Halo-tagged full-length Gads (Grb2-related adapter protein downstream of Shc), 1–322aa (UniProt O89100 1-322); assay: co-sedimentation
T1 sequence: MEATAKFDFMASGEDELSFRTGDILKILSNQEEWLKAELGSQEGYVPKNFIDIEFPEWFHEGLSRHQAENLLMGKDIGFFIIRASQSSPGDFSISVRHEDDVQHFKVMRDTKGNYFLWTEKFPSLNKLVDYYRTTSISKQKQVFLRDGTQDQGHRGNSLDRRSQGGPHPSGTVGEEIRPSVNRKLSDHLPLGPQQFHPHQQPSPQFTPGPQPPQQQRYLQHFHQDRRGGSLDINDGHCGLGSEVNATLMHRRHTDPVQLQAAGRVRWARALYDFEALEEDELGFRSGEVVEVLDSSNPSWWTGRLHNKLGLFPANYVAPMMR

Binder | % of protein binding to LUV [1] | binding result [2]
Halo-tagged full-length Gads (Grb2-related adapter protein downstream of Shc), 1–322aa (natural protein) MEATAKFDFMASGEDELSFRTGDILKILSNQEEWLKAELGSQEGYVPKNFIDIEFPEWFHEGLSRHQAENLLMGKDIGFFIIRASQSSPGDFSISVRHEDDVQHFKVMRDTKGNYFLWTEKFPSLNKLVDYYRTTSISKQKQVFLRDGTQDQGHRGNSLDRRSQGGPHPSGTVGEEIRPSVNRKLSDHLPLGPQQFHPHQQPSPQFTPGPQPPQQQRYLQHFHQDRRGGSLDINDGHCGLGSEVNATLMHRRHTDPVQLQAAGRVRWARALYDFEALEEDELGFRSGEVVEVLDSSNPSWWTGRLHNKLGLFPANYVAPMMR | 26.3% and 31.4% and 42.8% | 
SLP-76 tyrosine- and proline-rich domains (103–258aa with Y113F and Y173F mutations) (domain or fragment) GGWSSFEEDDFESPNDDQDGEDDGDYESPNEEEEAPVEDDADYEPPPSNDEEALQNSILPAKPFPNSNSMFIDRPPSGKTPQQPPVPPQRPMAALPPPPAGRNHSPLPPPQTNHEEPSRSRNHKTAKLPAPSIDRSTKPPLDRSLAPFDREPFTLG |  | binds
